According to article PMC5643063, “Viral infection upregulates myostatin promoter activity in orange-spotted grouper (Epinephelus coioides)”:

Biological target: T1, MyoD (Epinephelus coioides (orange-spotted …, UniProt D9IV55 1-269))
T1 sequence: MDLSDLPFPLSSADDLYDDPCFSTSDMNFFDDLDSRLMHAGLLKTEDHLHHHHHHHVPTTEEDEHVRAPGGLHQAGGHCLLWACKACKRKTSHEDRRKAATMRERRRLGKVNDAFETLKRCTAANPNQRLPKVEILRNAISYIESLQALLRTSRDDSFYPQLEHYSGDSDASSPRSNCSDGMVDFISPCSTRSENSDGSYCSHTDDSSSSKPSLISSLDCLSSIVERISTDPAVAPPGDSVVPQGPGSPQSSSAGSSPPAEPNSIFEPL
Experiment: EMSA; 2 ug MyoD, increasing probe, poly[d(I-C)] 0.1 ng, 5 mM Mg2+; 20 mM HEPES pH 7.9, 50 mM KCl, 5 mM MgCl2, 0.5 mM EDTA, 5 mM DTT, 5% glycerol, 0.1 ng poly[d(I-C)], 30 min room temperature; 6.5% native PAGE 0.5X TBE
Conditions: protein: recombinant; tags: C-terminal pET-29a His tag likely (NdeI/XhoI primers, no stop codon); chain copies: 2; label: Cy3; blunt

B1: E-box E6 probe (E6F/E6R) (dsDNA)
DNA 1: CTGTATGTGGATCATTTGTGTCTTTGGTGG
DNA 2: CCACCAAAGACACAAATGATCCACATACAG
binding result: binds
